T1: human Dll1 (human, UniProt O00548 18-723)
T1 construct: whole, on cells
T1 sequence (looked up): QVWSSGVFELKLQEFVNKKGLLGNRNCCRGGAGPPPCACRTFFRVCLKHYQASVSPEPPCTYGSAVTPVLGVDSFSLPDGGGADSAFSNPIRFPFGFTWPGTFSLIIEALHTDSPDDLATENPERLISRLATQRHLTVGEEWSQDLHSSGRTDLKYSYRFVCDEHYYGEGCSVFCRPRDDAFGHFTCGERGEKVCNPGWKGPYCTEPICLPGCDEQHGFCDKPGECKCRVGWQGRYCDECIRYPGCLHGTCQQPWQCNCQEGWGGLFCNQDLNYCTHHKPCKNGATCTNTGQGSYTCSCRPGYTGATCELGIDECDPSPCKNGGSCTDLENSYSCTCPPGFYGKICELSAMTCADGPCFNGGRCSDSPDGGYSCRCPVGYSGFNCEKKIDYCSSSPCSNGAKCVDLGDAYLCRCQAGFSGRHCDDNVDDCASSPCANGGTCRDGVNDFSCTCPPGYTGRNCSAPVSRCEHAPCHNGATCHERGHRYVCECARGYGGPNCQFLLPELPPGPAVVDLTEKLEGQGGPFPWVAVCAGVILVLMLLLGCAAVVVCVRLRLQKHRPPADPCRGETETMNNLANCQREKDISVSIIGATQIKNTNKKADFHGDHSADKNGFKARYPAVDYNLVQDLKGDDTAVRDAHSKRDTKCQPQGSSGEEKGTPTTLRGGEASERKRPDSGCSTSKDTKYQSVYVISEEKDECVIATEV


What was measured:
full length human DLL4 [1] = target: T2, full length human DLL4 (human, UniProt Q9NR61 27-685); test: FMAT, hybridoma supernatant, 293T cells with human DLL4
T2 construct: whole, on cells; also called native DLL4 expressed in HEK293 cells
T2 sequence (Q9NR61 27-685): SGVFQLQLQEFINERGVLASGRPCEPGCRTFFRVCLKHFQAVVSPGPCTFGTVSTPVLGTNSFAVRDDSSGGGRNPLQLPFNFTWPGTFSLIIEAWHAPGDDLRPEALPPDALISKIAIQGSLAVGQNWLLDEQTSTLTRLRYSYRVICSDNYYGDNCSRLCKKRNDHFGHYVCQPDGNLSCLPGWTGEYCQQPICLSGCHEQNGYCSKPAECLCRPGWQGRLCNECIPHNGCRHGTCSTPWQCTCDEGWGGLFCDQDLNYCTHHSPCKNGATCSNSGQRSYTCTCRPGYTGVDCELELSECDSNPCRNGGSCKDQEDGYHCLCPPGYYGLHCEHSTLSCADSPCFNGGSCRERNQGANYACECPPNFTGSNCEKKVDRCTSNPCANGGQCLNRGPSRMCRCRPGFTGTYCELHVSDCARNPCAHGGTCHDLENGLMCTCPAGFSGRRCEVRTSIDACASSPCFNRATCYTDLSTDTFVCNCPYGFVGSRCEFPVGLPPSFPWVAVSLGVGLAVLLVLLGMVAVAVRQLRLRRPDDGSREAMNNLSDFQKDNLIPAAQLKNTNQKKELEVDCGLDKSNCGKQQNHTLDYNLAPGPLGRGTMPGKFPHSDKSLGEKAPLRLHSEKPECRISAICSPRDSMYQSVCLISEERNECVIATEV
Protocol: (§1) Cells diluted in PBS containing 2% FBS were seeded at a density of 3000 expressing and 15000 mock transfected cells per well in 384 well plates (Corning Costar, catalog #3712). Immediately after plating, 15 or 20 μl/well of hybridoma supernatants and 10 μl/well of secondary antibody (Goat anti-human IgG Fc Cy5, final concentration 750 ng/ml) were added and plates incubated for 3 h at room temperature prior to reading the fluorescence on the FMAT 8200 instrument (Applied Biosystems). The binding of human Notch1/Fc chimera (R&D systems, catalog #3647-TK), diluted 1:2 from 2.86 μg/ml was used as a positive control for DLL4 and human Notch3/Fc chimera diluted from 10 μg/ml was used a positive control for binding to Jagged1. Results for 12 hybridoma supernatants showing binding of hybridoma supernatants to human/cynomolgus monkey DLL4 and human Jagged are shown in Table 3.

human Dll1 = target: T1, human Dll1; test: FACS, HEK-293 cells stably overexpressing human Dll1
human Jagged1 = target: T3, human Jagged1 (human, UniProt P78504 34-1218); test: FACS, HEK-293 cells stably overexpressing human Jagged1
T3 construct: whole, on cells
T3 sequence (P78504 34-1218): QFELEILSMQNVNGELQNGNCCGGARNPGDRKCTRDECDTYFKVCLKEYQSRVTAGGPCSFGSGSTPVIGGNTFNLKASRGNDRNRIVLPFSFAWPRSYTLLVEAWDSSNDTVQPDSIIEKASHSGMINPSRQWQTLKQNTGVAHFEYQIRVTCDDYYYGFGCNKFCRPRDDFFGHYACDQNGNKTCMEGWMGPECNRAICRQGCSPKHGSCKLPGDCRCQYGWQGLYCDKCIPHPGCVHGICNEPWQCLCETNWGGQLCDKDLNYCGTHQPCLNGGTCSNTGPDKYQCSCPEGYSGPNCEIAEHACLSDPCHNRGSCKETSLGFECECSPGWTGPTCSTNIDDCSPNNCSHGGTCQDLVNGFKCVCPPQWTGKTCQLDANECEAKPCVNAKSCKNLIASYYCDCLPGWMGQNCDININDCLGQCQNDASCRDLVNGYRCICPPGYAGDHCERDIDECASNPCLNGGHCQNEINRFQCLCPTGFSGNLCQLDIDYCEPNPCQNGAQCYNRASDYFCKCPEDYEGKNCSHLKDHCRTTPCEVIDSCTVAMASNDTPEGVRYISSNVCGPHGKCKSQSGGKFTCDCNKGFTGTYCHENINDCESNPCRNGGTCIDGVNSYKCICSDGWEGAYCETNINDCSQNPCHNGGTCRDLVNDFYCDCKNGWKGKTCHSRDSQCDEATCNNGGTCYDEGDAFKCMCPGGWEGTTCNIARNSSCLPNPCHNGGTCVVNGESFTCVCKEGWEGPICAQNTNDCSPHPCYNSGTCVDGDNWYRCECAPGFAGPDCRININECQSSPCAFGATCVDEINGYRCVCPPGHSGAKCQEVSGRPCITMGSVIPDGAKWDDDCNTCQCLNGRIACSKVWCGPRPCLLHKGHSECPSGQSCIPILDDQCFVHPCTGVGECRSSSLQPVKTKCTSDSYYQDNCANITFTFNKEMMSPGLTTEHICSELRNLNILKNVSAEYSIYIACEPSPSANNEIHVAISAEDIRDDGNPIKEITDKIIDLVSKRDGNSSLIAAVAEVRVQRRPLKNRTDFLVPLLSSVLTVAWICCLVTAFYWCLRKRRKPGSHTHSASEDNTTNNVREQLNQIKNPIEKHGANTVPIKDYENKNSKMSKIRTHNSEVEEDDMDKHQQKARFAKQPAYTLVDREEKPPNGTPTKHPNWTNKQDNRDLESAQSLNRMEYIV
Protocol: The ability of the purified antibodies to bind to human Jagged1 and Dll1 was determined by FACS analysis. […] Cells were resuspended in PBS containing 2% FCS and seeded at 50000 cells/well into V-bottomed plates. Anti-DLL4 antibodies diluted in PBS containing 2% FCS were added at a final concentration of 5 or 15 μg/ml and plates were incubated for 1 h at 4° C. […] Data was analyzed by comparing the shift in geometric mean fluorescence in the mock-transfected cells to that observed in the Jagged1- or Dll1-transfected cells and is shown in Tables 16 and 17.

full length human DLL4 [2] = target: T2, full length human DLL4; test: FACS competition vs 0.25 µg/ml human Notch1/Fc, HEK293 cells with human DLL4
Protocol: Further experiments were performed on selected antibodies using HEK293 cells that were stably transfected with either human, mouse or cynomolgus monkey DLL4 using retroviral constructs. In these experiments, anti-DLL4 antibodies (final concentration: 10-0.01 μg/ml) diluted in PBS containing 2% FCS were added to DLL4-expressing HEK 293 cells (50000 cells/well diluted in PBS containing 2% FCS) and incubated for 1 h at 4° C. Subsequently, Alexa-647 labeled human, rat or APC labeled mouse Notch1/Fc (e.g. R&D Systems, catalog #3647-TK-050, 1057-TK-050, 5267-TK-050, respectively) was added at a final concentration of 0.01-0.5 μg/ml and plates were incubated for a further 2 h at 4° C. prior to washing and reading on a FACSCalibur instrument.

full length human DLL4 [3] = target: T2, full length human DLL4; test: FMAT, hybridoma supernatant, 293T cells with human DLL4; FMAT, hybridoma supernatant, native full length human DLL4 on live 293T cells, room temperature
Protocol: as §1

full length human DLL4 [4] = target: T2, full length human DLL4; test: FMAT competition, supernatant vs Alexa-647 human Notch1/Fc, 293T cells with human DLL4; FMAT competition with Alexa-647 human Notch1/Fc, native human DLL4 on 293T cells, 4 C, n = 2
Protocol: (§2) Transfected and untransfected 239T cells were reconstituted in PBS containing 2% FCS and 5000 transfected and 17500 non-transfected cells were plated in 20 μl into wells of a 384-well tissue culture plate (Corning Costar, catalog #3712). Subsequently, 20 μl of hybridoma supernatant was added and plates were incubated at 4° C. for 1 h, at which time 20 μl of Alexa-647 labeled human Notch1/Fc was added at a final concentration of 6.7 ng/ml. After a further 3 h incubation at 4° C., the amount of bound Notch1/Fc was determined by reading the fluorescence in each well using an FMAT 8200 instrument (Applied Biosystems). Results are expressed as % inhibitions with the minimum inhibition in the assay being determined by the effects of non-DLL4 binding supernatants prepared in a similar way as described in example 2, and the maximum inhibition being defined as the signal obtained in the presence of a saturating concentration of unlabeled Notch1/Fc. N.T.=not tested

full length human DLL4 [5] = target: T2, full length human DLL4; test: FMAT competition, supernatant vs Alexa-647 human Notch1/Fc, 293T cells with human DLL4; FMAT competition with Alexa-647 human Notch1/Fc, native human DLL4 on 293T cells, 4 C, n = 3
Protocol: as §2

Binder | Count (full length human DLL4 [1]) | FL1 (full length human DLL4 [1]) | FL1 x count (full length human DLL4 [1]) | binding result (human Dll1) | binding result (human Jagged1) | IC50 (full length human DLL4 [2]) [nM] | Count (full length human DLL4 [3]) | FL1 (full length human DLL4 [3]) | FL1 x count (full length human DLL4 [3]) | % inhibition n = 2 (full length human DLL4 [4]) [%] | % inhibition n = 3 (full length human DLL4 [5]) [%]
9G8 (antibody, IgG4, V domains shown, Fully human; used for IgG4 rows and where no isotype is printed; also called 9G8 IgG4) VH: QLQLQESGPGLVKPSETLSLSCTVSGGSISSSSSYWGLIRQPPGKGLEWIGSIYYSGSTYYSPSLKSRVSISVDTSKNQFSLKLSSVTAADTAVYFCARQGYGGHPDVFDIWGQGTMVTVSS VL: SSELTQSPSVSVSPGQTARITCSGDKLGDVYVCWYQQKTGQSPVLVIYEDTKRPSGIPERFSGSNSGNTATLTISGTQVMDEADYYCQAWDSTTAVIFGGGTKLTVL | 198 | 9810 | 1.94e+06 |  |  |  |  |  |  |  | 
21H3 (antibody, IgG4, V domains shown, Fully human; used for IgG4 rows and where no isotype is printed; also called 21H3 IgG4) VH: QVQLVQSGAEVKKPGASVKVSCKASGYTFTNYGITWVRQAPGQGPEWMGWISAYNGNTNYAQKLQDRVTVTTDTSTSTAYMELRSLRSDDTAVYYCARDRVPRIPVTTEAFDIWGQGTMVTVSS VL: QSVLTQPPSASGTPGQRVTISCSGSSSNIGSYFVYWYQQLPGTAPKLLIYRNNQRPSGVPDRFSGSESGTSASLAISGLRSEDEADYYCAAWDDSLSGHWVFGGGTRLTVL |  |  |  |  |  | 1.59 | 181 | 10500 | 1.91e+06 | 131 | 140

The remaining lines, values ahead:

Count (full length human DLL4 [1]) | FL1 (full length human DLL4 [1]) | FL1 x count (full length human DLL4 [1]) | binding result (human Dll1) | binding result (human Jagged1) | IC50 (full length human DLL4 [2]) [nM] | Count (full length human DLL4 [3]) | FL1 (full length human DLL4 [3]) | FL1 x count (full length human DLL4 [3]) | % inhibition n = 2 (full length human DLL4 [4]) [%] | % inhibition n = 3 (full length human DLL4 [5]) [%] | Binder
 |  |  | no binding | no binding | 1.62 | 194 | 9930 | 1.93e+06 | 109 | 148 | 4B4 (antibody, IgG4, V domains shown, Fully human; used for IgG4 rows and where no isotype is printed; also called 4B4 IgG4; 4B4.1) VH: QVLLIQSGAEVKKPGASVQVSCKASGYTFTNYGVIWVRQAPGQGLEYMGWISAYNGNTNYAQKLQDRVTMTSDTSTTTAYMELRSLRSDDTAVYYCARELGSSFDYWGQGTLVTVSS VL: SYELTQPPSVSVSPGQTARITCSGDALPKKYAYWYQQKSGQAPVLVIYEDIKRPSGIPERFSGSSSGTMATLTISGAQVEDEADYYCFSTDNSGDHSVFGGGTKLTVL
191 | 10800 | 2.06e+06 | no binding | no binding |  |  |  |  |  |  | 2H10 (antibody, IgG4, V domains shown, Fully human; used for IgG4 rows and where no isotype is printed; also called 2H10 IgG4) VH: QVQLVESGGGVVQPGRSLRLSCAASGFTFSRHGMHWVRQAPGKGLEWVAVVWFDGSNIYYADSVKGRFTISRDNSKNTLYLQMNSLRAEDTAMYYCARDSRIAAADYWGQGTLVTVSS VL: SYELTQPPSVSVSPGQTVSITCSGDKLGDKYVCWYQQKPGQSPVLVIYQESKRPSGIPERFSGSSSGNTATLTISGTQAMDEADYYCQTWDSSLVVFGGGTKLTVL
